Assay results published in the supplement of paper PMC11246515.
± gives the standard deviation of the averaged measurements.

Test: total protein half-life in vivo (active degradation + dilution); higher = more stable protein
[1] = E. coli NCM3722 delta-clpP delta-lon delta-hslV, growth: N-lim chemostat, doubling time 6 h
[2] = E. coli NCM3722 delta-clpP, growth: N-lim chemostat, doubling time 6 h
[3] = E. coli NCM3722 delta-hslV, growth: N-lim chemostat, doubling time 6 h
[4] = E. coli NCM3722 delta-lon, growth: N-lim chemostat, doubling time 6 h
[5] = E. coli NCM3722 delta-smpB, growth: N-lim chemostat, doubling time 6 h
[6] = wild type E. coli NCM3722, growth: C-lim chemostat, doubling time 3 h
[7] = wild type E. coli NCM3722, growth: C-lim chemostat, doubling time 6 h
[8] = wild type E. coli NCM3722, growth: C-lim chemostat, doubling time 12 h
[9] = wild type E. coli NCM3722, growth: N-lim chemostat, doubling time 6 h
[10] = wild type E. coli NCM3722, growth: N-lim chemostat, doubling time 12 h
[11] = wild type E. coli NCM3722, growth: P-lim chemostat, doubling time 6 h
[12] = wild type E. coli NCM3722, growth: P-lim chemostat, doubling time 12 h

Sequence | total protein half-life in vivo [1] | total protein half-life in vivo [2] | total protein half-life in vivo [3] | total protein half-life in vivo [4] | total protein half-life in vivo [5] | total protein half-life in vivo [6] | total protein half-life in vivo [7] | total protein half-life in vivo [8] | total protein half-life in vivo [9] | total protein half-life in vivo [10] | total protein half-life in vivo [11] | total protein half-life in vivo [12]
MDRIIQSPGKYIQGADVINRLGEYLKPLAERWLVVGDKFVLGFAQSTVEKSFKDAGLVVEIAPFGGECSQNEIDRLRGIAETAQCGAILGIGGGKTLDTAKALAHFMGVPVAIAPTIASTDAPCSALSVIYTDEGEFDRYLLLPNNPNMVIVDTKIVAGAPARLLAAGIGDALATWFEARACSRSGATTMAGGKCTQAALALAELCYNTLLEEGEKAMLAAEQHVVTPALERVIEANTYLSGVGFESGGLAAAHAVHNGLTAIPDAHHYYHGEKVAFGTLTQLVLENAPVEEIETVAALSHAVGLPITLAQLDIKEDVPAKMRIVAEAACAEGETIHNMPGGATPDQVYAALLVADQYGQRFLQEWE [P0A9S5] | 4.72 ± 0.17 h | 4.2 ± 0.78 h | 4.13 ± 0.15 h | 4.432 ± 0.034 h | 3.52 ± 0.49 h | 3.07 ± 0.084 h | 5.75 ± 0.4 h | 11.7 ± 0.7 h | 4.8 ± 0.91 h | 6.5 ± 0.44 h | 6.33 ± 0.13 h | 13 ± 0.35 h
MFKPHVTVACVVHAEGKFLVVEETINGKALWNQPAGHLEADETLVEAAARELWEETGISAQPQHFIRMHQWIAPDKTPFLRFLFAIELEQICPTQPHDSDIDCCRWVSAEEILQASNLRSPLVAESIRCYQSGQRYPLEMIGDFNWPFTKGVI [P0AEI6] | 4.74 ± 0.38 h | 4.42 ± 0.56 h | 4.45 h | 4.69 ± 0.34 h | 4.929 ± 0.049 h |  | 5.3 ± 0.12 h | 11.6 ± 1.9 h | 4.54 ± 0.27 h | 6.249 ± 0.042 h | 5.49 ± 0.18 h | 11.12 ± 0.055 h
MNKSLVAVGVIVALGVVWTGGAWYTGKKIETHLEDMVAQANAQLKLTAPESNLEVSYQNYHRGVFSSQLQLLVKPIAGKENPWIKSGQSVIFNESVDHGPFPLAQLKKLNLIPSMASIQTTLVNNEVSKPLFDMAKGETPFEINSRIGYSGDSSSDISLKPLNYEQKDEKVAFSGGEFQLNADRDGKAISLSGEAQSGRIDAVNEYNQKVQLTFNNLKTDGSSTLASFGERVGNQKLSLEKMTISVEGKELALLEGMEISGKSDLVNDGKTINSQLDYSLNSLKVQNQDLGSGKLTLKVGQIDGEAWHQFSQQYNAQTQALLAQPEIANNPELYQEKVTEAFFSALPLMLKGDPVITIAPLSWKNSQGESALNLSLFLKDPATTKEAPQTLAQEVDRSVKSLDAKLTIPVDMATEFMTQVAKLEGYQEDQAKKLAKQQVEGASAMGQMFRLTTLQDNTITTSLQYANGQITLNGQKMSLEDFVGMFAMPALNVPAVPAIPQQ | 6.64 ± 0.32 h | 6.77 ± 0.68 h | 6.24 ± 0.28 h | 6.136 ± 0.016 h | 6 ± 0.23 h | 3.14 ± 0.049 h | 5.99 ± 0.08 h | 11.8 ± 1.2 h | 6.21 ± 0.15 h | 13.15 ± 0.042 h | 5.98 ± 0.13 h | 12.9 ± 0.87 h
MLTTLIYRSHIRDDEPVKKIEEMVSIANRRNMQSDVTGILLFNGSHFFQLLEGPEEQVKMIYRAICQDPRHYNIVELLCDYAPARRFGKAGMELFDLRLHERDDVLQAVFDKGTSKFQLTYDDRALQFFRTFVLATEQSTYFEIPAEDSWLFIADGSDKELDSCALSPTINDHFAFHPIVDPLSRRIIAFEAIVQKNEDSPSAIAVGQRKDGEIYTADLKSKALAFTMAHALELGDKMISINLLPMTLVNEPDAVSFLLNEIKANALVPEQIIVEFTESEVISRFDEFAEAIKSLKAAGISVAIDHFGAGFAGLLLLSRFQPDRIKISQELITNVHKSGPRQAIIQAIIKCCTSLEIQVSAMGVATPEEWMWLESAGIEMFQGDLFAKAKLNGIPSIAWPEKK | 5.85 ± 0.18 h |  |  | 1.79 ± 0.32 h |  |  | 2.73 ± 2.2 h |  |  |  | 0.443 h | 
MSYTLPSLPYAYDALEPHFDKQTMEIHHTKHHQTYVNNANAALESLPEFANLPVEELITKLDQLPADKKTVLRNNAGGHANHSLFWKGLKKGTTLQGDLKAAIERDFGSVDNFKAEFEKAAASRFGSGWAWLVLKGDKLAVVSTANQDSPLMGEAISGASGFPIMGLDVWEHAYYLKFQNRRPDYIKEFWNVVNWDEAAARFAAKK | 6.4 ± 0.78 h | 5.61 ± 0.3 h | 5.5 ± 0.16 h | 7.05 ± 1.2 h | 4.96 ± 1.2 h |  | 5.11 ± 0.91 h | 11.3 ± 1.7 h | 4.87 ± 1.1 h | 9.5 ± 0.12 h | 5.31 ± 0.55 h | 11.3 ± 0.15 h
MLKREMNIADYDAELWQAMEQEKVRQEEHIELIASENYTSPRVMQAQGSQLTNKYAEGYPGKRYYGGCEYVDIVEQLAIDRAKELFGADYANVQPHSGSQANFAVYTALLEPGDTVLGMNLAHGGHLTHGSPVNFSGKLYNIVPYGIDATGHIDYADLEKQAKEHKPKMIIGGFSAYSGVVDWAKMREIADSIGAYLFVDMAHVAGLVAAGVYPNPVPHAHVVTTTTHKTLAGPRGGLILAKGGSEELYKKLNSAVFPGGQGGPLMHVIAGKAVALKEAMEPEFKTYQQQVAKNAKAMVEVFLERGYKVVSGGTDNHLFLVDLVDKNLTGKEADAALGRANITVNKNSVPNDPKSPFVTSGIRVGTPAITRRGFKEAEAKELAGWMCDVLDSINDEAVIERIKGKVLDICARYPVYA [P0A825] | 4.68 ± 1 h | 3.83 ± 0.091 h | 3.87 ± 0.15 h | 4.35 ± 0.27 h | 3.8 ± 0.26 h | 3.22 ± 0.18 h | 5.51 ± 0.18 h | 10.7 ± 2.1 h | 3.814 ± 0.011 h | 5.98 ± 0.077 h | 5.73 ± 0.5 h | 11.3 ± 0.74 h
